According to patent WO2022210830A1 (dated 2022):

How the values were obtained:
Assay in all cases: cell-based or functional assay
[1] = target: Delta strain spike protein on pseudotype virus (SARS-CoV-2, UniProt P0DTC2 14-1273)
[2] = target: Kappa strain spike protein on pseudotype virus (SARS-CoV-2, UniProt P0DTC2 14-1273)
[3] = target: Omicron strain spike protein on pseudotype virus (SARS-CoV-2, UniProt P0DTC2 14-1273)

B1: 0210-28K (antibody, V domains shown)
VH: QMQLVQSGPEVKKPGTSVKVSCKASGFTFSISAVQWVRQARGQRLEWIGWIVVGSGNTNYAQKFQERVTITRDMSTSTAYMELSSLRFEDTAVYYCAAPYCGGDCSDGFDIWGQGTMVTVSS
VL: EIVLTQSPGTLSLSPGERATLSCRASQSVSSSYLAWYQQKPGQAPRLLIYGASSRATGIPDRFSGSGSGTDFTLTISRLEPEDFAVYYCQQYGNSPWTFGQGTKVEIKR
IC50, inhibition of pseudotype virus infection, 1st experiment [1]: < 0.0075 µg/mL
IC50, inhibition of pseudotype virus infection, 2nd experiment [1]: 0.0121 µg/mL
IC50, inhibition of pseudotype virus infection, 1st experiment [2]: 0.0108 µg/mL
IC50, inhibition of pseudotype virus infection, 2nd experiment [2]: 0.0203 µg/mL
IC50, inhibition of pseudotype virus infection (luciferase) [3]: ~0.2 nM
